In US10499655B2, “Reagents and methods for inhibiting or disrupting biofilm” (priority 2015, dated 2019):

Key:
Pseudomonas aeruginosa [1] = assay: MIC test strips on bacteria dispersed from a biofilm by PsIG versus planktonic bacteria; assay type: cell-based; settings: 24-hour biofilm treated with PsIG 1 hour; MIC read after 16 hours at 37 degrees centigrade
Experimental: Planktonic Pseudomonas aeruginosa may be cultured for 24 hours with shocking in LBNS medium, and 0.2 ml of such culture may be used as control. As shown in FIGS. 8(a) and 8(c), a control group have shown measurement of MIC values of TOB, CIP by a planktonic bacteria. FIGS. 8(b) and 8(d) have shown measurement of MIC values of TOB, CIP by bacteria cells dispersed from the biofilm after the treatment of the PsIG protein.

[2] = test system: biofilm of Pseudomonas aeruginosa; assay: Inhibition of biofilm formation, crystal violet staining, 96-well plate; assay type: cell-based
Text: (§1) The biomass of the biofilm has been detected by a crystal violet staining method. The method including: discarding cultures (bacteria that are not attached on wells.) in the wells, and washing three times. Then, the biofilm may be stained with 0.1% crystal violet, and washed three times, then the crystal violet combined in the biofilm may be dissolved with 30% acetic acid, and the value of OD560 thereof (for example, the concentration of the crystal violet) may be measured by a spectrophotometer to measure the biomass of the biofilm was measured. PAO1-derived PsI polysaccharide negative strain (PAO1, A psi) may be used as a negative control, and PAO1-derived PsI polysaccharide inducible strain (PAO1, PBAD-psI) (arabinose used as an inducer) may be used as positive control.
A fresh single colony of Pseudomonas aeruginosa on the LBNS plate may be inoculated in LBNS liquid medium, carried out shake culture at 200 rpm at 37 degrees centigrade for 12 hours, and then inoculated in Jensen's medium with 1% inoculum dose, at the same time, different concentrations of PsIG protein may be added. After static culture in a 96-well plate at 30 degrees centigrade for 24 hours, liquid cultures were discarded and the biofilm may be stained with the crystal violet, and biomass of the biofilm was detected, in which specific operations may refer to the steps in Example 1. […]

[3] = test system: formed biofilm of Pseudomonas aeruginosa; assay: Disruption of formed biofilm, crystal violet staining; assay type: cell-based
Text: as §1
A fresh single colony of Pseudomonas aeruginosa on the LBNS plate may be inoculated in LBNS liquid medium, carried out shake culture at 200 rpm at 37 degrees centigrade for 12 hours, and then inoculated in Jensen's media with 1% inoculum dose, with static culture in a 96-well plate at 30 degrees centigrade for 24 hours. Cultures may be discarded and the biofilm (surface-attached bacteria) was washed with 0.8% physiological saline for three times. 100 μl Jensen's media containing 1 nM PsIG may be added into wells and the biofilm treated for 5 or 30 minutes. Then, biomass of the treated biofilm may be detected by the crystal violet staining method, in which specific operation steps of the crystal violet staining method may refer to Example 2.
At the same time, Jensen's media without addition of PsIG may be used as a control group.
A fresh single colony of Pseudomonas aeruginosa on the LBNS plate may be inoculated in LBNS liquid medium, carried out shake culture at 200 rpm at 37 degrees centigrade for 12 hours, and then inoculated in Jensen's media with 1% inoculum dose, and carried out static culture in a 96-well plate at 30 degrees centigrade for 24 hours. Cultures were discarded and the biofilm was washed with 0.8% physiological saline for three times. 100 μl Jensen's media containing 50 nM PsIG protein was added and the biofilm was treated for different times. Then, biomass of the treated biofilms may be tested by a crystal violet staining method, in which specific operation steps of the crystal violet staining method may refer to Example 2.

[4] = test system: biofilm of Pseudomonas syringae; assay: Inhibition of biofilm formation, crystal violet staining; assay type: cell-based; settings: 50 nM PsIG
Pseudomonas aeruginosa [5] = assay: Inhibitory zone on LBNS plate with filter paper; assay type: cell-based; settings: 50 nM PsIG; 24 hours at 37 degrees centigrade
Experimental: As shown in FIG. 9(a), four experimental groups may be set for buffer; 50 nM PsIG; tobramycin (TOB); combination of TOB and PsIG, respectively. Experiment 2:
As shown in FIG. 9(b), four experimental groups may be set for buffer; 50 nM PsIG; ciprofloxacin (CIP); combination of CIP and PsIG, respectively.

Caco2 = settings: PsIG treatment 12 hours
Text: (§2) Cytotoxicity of a PsIG protein may be detected by human colon epithelial cell line Caco2 and HT-29.

HT-29 = settings: PsIG treatment 12 hours
Text: as §2

PAO1 biofilm = assay: Clearance of PsIG-treated biofilm by macrophages, CFU count; assay type: cell-based, Pseudomonas aeruginosa; settings: biofilm treated with PsIG 1 hour, then macrophages 2 hours; versus controls without PsIG
Experimental: The PAO1 biofilm cultured on glass coverslips for 24 hours was treated with PsIG and co-incubated with macrophages, and then scraped and resuspended in 1 ml of physiological saline to quantify colony formation unit (CFU). The mean and SD values of CFU obtained by three repeated experiments were shown in the figure and T test (*, P<0.01) was performed for different experimental groups.
The PAO1 biofilm cultured on glass coverslips for 24-hours may be treated with the PsIG protein for 1 hour, and then incubated with macrophages for 2 hours, and remaining biofilm may be scraped and resuspended in 1 ml of physiological saline for colony formation unit (CFU).

[6] = test system: biofilm of Pseudomonas aeruginosa on implants; assay: Mouse implant infection model; assay type: in vivo; settings: mouse peritoneum, local treatment, 24 hours; 50 nM PsIG and/or 50 mg kg-1 tobramycin
Experimental: FIG. 12 illustrates a mouse implant infections model. PsIG improves host clearance of implant biofilms and show combinatory effect with Tob in eradication of implant biofilms in vivo. The horizontal dashed line represents a detection limit of the experiment, which is shown as mean (*P<0.01) of the biofilm counts in five mice.
Implants coated by the biofilm of Pseudomonas aeruginosa may be inserted into mouse peritoneum and the following treatments may be performed locally: 50 nM PsIG treatment alone; 50 mg kg-1 tobramycin treatment alone; the 50 nM PsIG and the 50 mg kg-1 tobramycin co-treatment. After culture in vivo for 24 hours, mice may be sacrificed so as to harvest the implants, and the implants may be removed out and counted on LB plates after homogenization. The number of Pseudomonas aeruginosa on the implants may be tabulated with a format of CFU/ml.

[7] = test system: L4-stage Caenorhabditis elegans; assay: Toxicity of PsIG-dispersed biofilm bacteria to C. elegans; assay type: in vivo; settings: co-incubated 25 degrees centigrade, 48 hours; live/dead nematodes
Experimental: The experiment may be carried out by using C. elegans as a host model.
Two experimental groups may be set for Experimental group 1 and Experimental group 2, respectively.
Experiment group 1: the bacterial cells collected from a PsIG-treated bacterial biofilm (a biofilm of Pseudomonas aeruginosa) may be co-incubated with L4-stage Caenorhabditis elegans.
Experimental group 2: co-incubation the planktonic culture of Pseudomonas aeruginosa grown for 24 hours may be co-incubated L4-stage Caenorhabditis elegans.
Experimental group 1 and Experimental group 2 were placed in 96-well plates respectively and co-incubated at 25 degrees centigrade for 48 hours. […] Each group was repeated for three times, the results are expressed with a format of the mean value±SD value.

[8] = Degradation of PsI polysaccharide in vitro, immunoblotting; assay type: biochemical, Pseudomonas aeruginosa; settings: 50 nM PsIG
Text: Preparation and purification of PsI polysaccharide may be carried out with reference to published document (Molecular Microbiology 2009; 73:622-638, titled Genetic and biochemical analyses of the Pseudomonas aeruginosa PsI exopolysaccharide reveal overlapping roles for polysaccharide synthesis enzymes in PsI and LPS production, written by Byrd M S, Sadovskaya I, Vinogradov E et al.)
The standard curve may be prepared according to the following method: PsI polysaccharide prepared by the above method may be diluted 10 times with gradient and the PsI polysaccharide may be detected by immunoblotting.
To Solution 1 (PBS phosphate buffer), PsI polysaccharide and 50 nM of the PsIG protein obtained in Example 16 may be added to obtain Reaction system 1, the concentration of PsI polysaccharide in reaction system 1 may be 4 mg/ml, and the concentration of PsIG protein may be 50 nM. The eight same reaction systems 1 may be incubated at 20 degrees centigrade, 25 degrees centigrade, 30 degrees centigrade, 37 degrees centigrade, 40 degrees centigrade, 45 degrees centigrade, 50 degrees centigrade and 55 degrees centigrade for one hour, respectively, and then remaining PsI polysaccharide may be detected with a PsI polysaccharide antibody (the PsI polysaccharide antibody may be obtained by using PsI polysaccharide as immunogen) by immunoblotting. […]

[9] = test system: mouse macrophages (RAW264.7)

Molecule	MIC values for bacteria dispersed from biofilms by PsIG compared with planktonic cells (Pseudomonas aeruginosa [1])	inhibitory rate on biofilm formation ([2]; PsIG protein at 1 nM, static culture 30 degrees centigrade, 24 hours) [%]	inhibition of formation of the biofilm ([2]; concentration l0nm-50nm, static culture 24 hours)	reduction of biomass of formed biofilm ([3]; 1 nM PsIG, treated 30 minutes, 24-hour biofilm) [%]	effect on biomass of formed biofilm ([3]; 1 nM PsIG, treated five minutes, 24-hour biofilm)	reduction of biomass of formed biofilm ([3]; 50 nM PsIG, treated 10 minutes, 24-hour biofilm) [%]	effect on biomass of formed biofilm ([3]; 50 nM PsIG, treated 30 minutes, 24-hour biofilm)	effect on biomass of formed biofilm ([3]; 50 nM PsIG, treated five minutes, 24-hour biofilm)	effect on biomass of formed biofilm ([3]; 50 nM PsIG, treated more than 30 minutes)	inhibitory effect on biofilm [4]	inhibitory zone, PsIG alone (Pseudomonas aeruginosa [5])	effect on activity of colon epithelial cells (MTT) (Caco2)	effect on activity of colon epithelial cells (MTT) (HT-29)	number of remaining bacteria of the biofilm (PAO1 biofilm)	number of bacteria on the implants [6]	toxicity of PsIG-dispersed biofilm bacteria versus planktonic bacteria [7]	temperature of highest degradation rate of PsI polysaccharide ([8]; 4 mg/ml PsI, one hour) [degrees centigrade]	reduction of amount of PsI polysaccharide compared with untreated control ([8]; 30 degrees centigrade, 1 hour) [%]	toxic effects on macrophages [9]
O=C(O)c1cn(C2CC2)c2cc(N3CCNCC3)c(F)cc2c1=O [ciprofloxacin]	lower	–	–	–	–	–	–	–	–	–	–	–	–	–	–	–	–	–	–
NC[C@H]1O[C@H](O[C@H]2[C@H](O)[C@@H](O[C@H]3O[C@H](CO)[C@@H](O)[C@H](N)[C@H]3O)[C@H](N)C[C@@H]2N)[C@H](N)C[C@@H]1O [tobramycin]	lower	–	–	–	–	–	–	–	–	–	–	–	–	–	–	–	–	–	–
PsIG protein: Protein from Pseudomonas aeruginosa PAO1, purified PsIG (31-442) of SEQ ID NO.: 2, expressed in E. coli, 47 kDa (protein, listed as Pseudomonas aeruginosa) EIQVLKAPRAVVWKDFLGVNAQFLWFSPERYNKQIDRLQDLGLEWVRLDLHWDRLETAEDQYQLASLDQLVKDLEARQLKSVFYLVGSARFITTAPFYSPFQDQYPPRDPEVFARRMAMLSQRYPSVAAWQVWNEPNLIGFWRPKADPEGYAKLLQASTIALRMVDPEKPVVSAGMAFFSEMPDGRTMFDALGHLGVESLGTIATYHPYTQLPEGNYPWNLDFVSHANQINRALRNAGVPAIWSTEWGWSAYKGPKELQDIIGVEGQADYVLRRLALMSALDYDRIFLFTLSDLDQRASVRDRDYGLLDLDANPKPVYLALQRFLKVTGPKLRPADPPVTEDLPDGSFSIGWTREDGRNVWLFWSARGGNVRLPKLKEATLHDPLSGKVTPLSGSDGLEVPVKSSLQMLVWE	–	50	significantly inhibit	50	no effect	50	reduced to a level similar to the PsI polysaccharide-negative strain	significantly reduced	no more significant reduction	same inhibitory effects	does not produce inhibitory zone	no effect	no effect	least	≈ 10^3 CFU/mL	no significant difference in toxicity	45	75	not shown any toxic effects
